Results taken from article doi:10.1101/2025.11.21.687491v1.

How the values were obtained:
Assay in all cases: purified protein
Settings in all cases: GSH co-substrate, pH 7.0, 37 °C
purified protein [1] = substrate: CCCC/C=C/C(C/C=C\CCCCCCCC(=O)O)OO
purified protein [2] = substrate: CCCCCC(/C=C/C=C/CCCCCCCC(=O)O)OO
purified protein [3] = substrate: CCCCC/C=C\CC(/C=C/CCCCCCC(=O)O)OO
purified protein [4] = substrate: CCCCC/C=C/C=C/C(CCCCCCCC(=O)O)OO
purified protein [5] = substrate: CCCCCC(/C=C/C=C\CCCCCCCC(=O)O)OO

B1: AtGSTU17 (U17) (Arabidopsis thaliana) (protein)
chain: MASSDVKLIGAWASPFVMRPRIALNLKSVPYEFLQETFGSKSELLLKSNPVHKKIPVLLHADKPVSESNIIVEYIDDTWSSSGPSILPSDPYDRAMARFWAAYIDEKWFVALRGFLKAGGEEEKKAVIAQLEEGNAFLEKAFIDCSKGKPFFNGDNIGYLDIALGCFLAWLRVTELAVSYKILDEAKTPSLSKWAENFCNDPAVKPVMPETAKLAEFAKKIFPKPQA
- Km (purified protein [1]): 20.4 µM
- kcat (purified protein [1]): 2.71 s⁻¹
- Km (purified protein [2]): 24.65 µM
- kcat (purified protein [2]): 2.44 s⁻¹
- Km (purified protein [3]): 9.27 µM
- kcat (purified protein [3]): 1.46 s⁻¹
- Km (purified protein [4]): 8.97 µM
- kcat (purified protein [4]): 1.13 s⁻¹
- Km (purified protein [5]): 10.36 µM
- kcat (purified protein [5]): 2.55 s⁻¹
